Measured values: paper PMC9482650, “Quantitative fragmentomics allow affinity mapping of interactomes” (Nature Communications, 2022)

Columns and labels:
Assay in all cases: holdup assay
Parameters in all cases: key: below the threshold = too weak to quantify, mostly under pKd 3.1 to 4
PDZD2_3, O15018 = biological target: T1, PDZD2_3, O15018
T1 sequence (O15018 581-682, limits assumed, looked up): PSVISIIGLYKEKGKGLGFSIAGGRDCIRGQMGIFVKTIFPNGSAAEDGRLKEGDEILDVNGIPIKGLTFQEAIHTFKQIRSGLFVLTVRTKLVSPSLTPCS

MAGI1_6, Q96QZ7 = biological target: MAGI1_6, Q96QZ7
PDZRN4_2, Q6ZMN7 = biological target: PDZRN4_2, Q6ZMN7
MAGI3_5, Q5TCQ9 = biological target: MAGI3_5, Q5TCQ9
LNX2_4, Q8N448 = biological target: T2, LNX2_4, Q8N448
T2 sequence (Q8N448 595-690, limits assumed, looked up): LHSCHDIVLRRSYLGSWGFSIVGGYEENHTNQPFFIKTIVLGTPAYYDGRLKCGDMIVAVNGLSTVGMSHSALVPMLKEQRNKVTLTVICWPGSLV

INTU, Q9ULD6 = biological target: T3, INTU, Q9ULD6
T3 sequence (Q9ULD6 180-273, limits assumed, looked up): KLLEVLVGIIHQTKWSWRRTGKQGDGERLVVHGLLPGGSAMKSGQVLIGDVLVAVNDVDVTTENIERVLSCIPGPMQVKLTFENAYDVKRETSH

NHERF2_1, Q15599 = biological target: NHERF2_1, Q15599
MAST3, O60307 = biological target: MAST3, O60307
MAGIX, Q9H6Y5 = biological target: MAGIX, Q9H6Y5
RGS3, P49796-9 = biological target: RGS3, P49796-9
NHERF4_3, Q86UT5 = biological target: NHERF4_3, Q86UT5
TJP3_2, O95049 = biological target: T4, TJP3_2, O95049
T4 sequence (O95049 190-282, limits assumed, looked up): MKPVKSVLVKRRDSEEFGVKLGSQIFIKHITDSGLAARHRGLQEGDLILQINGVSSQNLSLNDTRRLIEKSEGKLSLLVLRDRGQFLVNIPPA

IL16_2, Q14005 = biological target: IL16_2, Q14005
MPDZ_11, O75970 = biological target: T5, MPDZ_11, O75970
T5 sequence (O75970 1720-1817, limits assumed, looked up): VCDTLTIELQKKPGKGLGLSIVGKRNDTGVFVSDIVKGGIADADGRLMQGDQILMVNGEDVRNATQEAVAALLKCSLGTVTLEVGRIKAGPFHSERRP

LNX2_1, Q8N448 = biological target: T6, LNX2_1, Q8N448
T6 sequence (Q8N448 228-328, limits assumed, looked up): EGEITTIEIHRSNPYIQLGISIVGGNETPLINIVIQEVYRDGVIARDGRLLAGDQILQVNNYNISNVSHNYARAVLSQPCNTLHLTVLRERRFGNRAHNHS

TJP3_1, O95049 = biological target: T7, TJP3_1, O95049
T7 sequence (O95049 6-103, limits assumed, looked up): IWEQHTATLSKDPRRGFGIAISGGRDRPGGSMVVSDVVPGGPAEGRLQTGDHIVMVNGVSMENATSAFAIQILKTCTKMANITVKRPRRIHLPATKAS

MPP5, Q8N3R9 = biological target: T8, MPP5, Q8N3R9
T8 sequence (Q8N3R9 251-346, limits assumed, looked up): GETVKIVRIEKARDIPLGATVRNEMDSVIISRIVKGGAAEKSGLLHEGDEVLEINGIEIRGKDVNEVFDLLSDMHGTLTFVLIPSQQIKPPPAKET

MAGI3_6, Q5TCQ9 = biological target: MAGI3_6, Q5TCQ9
MPDZ_7, O75970 = biological target: T9, MPDZ_7, O75970
T9 sequence (O75970 1146-1253, limits assumed, looked up): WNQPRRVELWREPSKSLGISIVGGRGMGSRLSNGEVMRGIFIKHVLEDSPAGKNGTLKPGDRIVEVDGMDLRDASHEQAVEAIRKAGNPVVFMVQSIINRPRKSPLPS

PARD3B_2, Q8TEW8 = biological target: PARD3B_2, Q8TEW8
PTPN4, P29074 = biological target: T10, PTPN4, P29074
T10 sequence (P29074 512-599, limits assumed, looked up): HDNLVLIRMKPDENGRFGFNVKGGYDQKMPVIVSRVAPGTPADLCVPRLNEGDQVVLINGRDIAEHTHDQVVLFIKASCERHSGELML

PDLIM3, Q53GG5 = biological target: T11, PDLIM3, Q53GG5
T11 sequence (Q53GG5 1-94, limits assumed, looked up): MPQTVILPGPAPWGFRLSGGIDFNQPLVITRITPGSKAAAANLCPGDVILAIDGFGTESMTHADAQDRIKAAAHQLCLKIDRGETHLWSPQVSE

SHANK2, Q9UPX8 = biological target: T12, SHANK2, Q9UPX8
T12 sequence (Q9UPX8 621-730, limits assumed, looked up): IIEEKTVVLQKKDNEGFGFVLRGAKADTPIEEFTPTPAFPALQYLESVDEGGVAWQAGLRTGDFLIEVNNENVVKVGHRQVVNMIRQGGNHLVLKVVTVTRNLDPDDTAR

MAGI1_5, Q96QZ7 = biological target: MAGI1_5, Q96QZ7
SHROOM3, Q8TF72 = biological target: T13, SHROOM3, Q8TF72
T13 sequence (Q8TF72 20-120, limits assumed, looked up): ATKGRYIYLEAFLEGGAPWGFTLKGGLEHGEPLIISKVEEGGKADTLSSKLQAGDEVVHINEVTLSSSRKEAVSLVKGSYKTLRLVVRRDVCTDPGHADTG

[1] = modified: phospho on S at position -3 from the C-terminal residue
[2] = plain residues with an end cap or a label only (N-terminal biotin on a linker: (peg)3)
[3] = modified: acetyl on K at position -1 from the C-terminal residue

Measured: pKd

NHERF4_3, Q86UT5, sequence (Q86UT5 325-412): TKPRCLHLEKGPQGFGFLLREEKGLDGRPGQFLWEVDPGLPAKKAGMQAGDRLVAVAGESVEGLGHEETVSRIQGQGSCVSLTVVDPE
MAST3, O60307, sequence (O60307 945-1048): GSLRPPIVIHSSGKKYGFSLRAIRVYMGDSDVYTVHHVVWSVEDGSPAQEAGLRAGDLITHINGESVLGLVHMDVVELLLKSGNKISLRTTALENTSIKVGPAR
MAGIX, Q9H6Y5, sequence (Q9H6Y5 118-211): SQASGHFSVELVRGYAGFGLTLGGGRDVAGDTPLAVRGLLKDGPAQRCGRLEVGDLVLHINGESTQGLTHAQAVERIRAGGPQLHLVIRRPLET
PDZRN4_2, Q6ZMN7, sequence (Q6ZMN7 389-498): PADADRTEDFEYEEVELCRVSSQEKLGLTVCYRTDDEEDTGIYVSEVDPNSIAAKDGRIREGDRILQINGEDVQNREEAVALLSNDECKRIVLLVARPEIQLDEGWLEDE
NHERF2_1, Q15599, sequence (Q15599 9-91): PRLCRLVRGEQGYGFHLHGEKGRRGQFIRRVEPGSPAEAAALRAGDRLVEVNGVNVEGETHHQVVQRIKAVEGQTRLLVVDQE
PARD3B_2, Q8TEW8, sequence (Q8TEW8 376-471): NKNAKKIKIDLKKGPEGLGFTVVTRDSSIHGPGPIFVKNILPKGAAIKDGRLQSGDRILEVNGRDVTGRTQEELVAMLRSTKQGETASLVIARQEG
MAGI3_5, Q5TCQ9, sequence (Q5TCQ9 847-941): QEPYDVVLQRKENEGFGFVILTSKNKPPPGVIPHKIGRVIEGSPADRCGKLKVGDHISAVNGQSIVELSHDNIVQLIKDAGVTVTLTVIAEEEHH
IL16_2, Q14005, sequence (Q14005 350-450): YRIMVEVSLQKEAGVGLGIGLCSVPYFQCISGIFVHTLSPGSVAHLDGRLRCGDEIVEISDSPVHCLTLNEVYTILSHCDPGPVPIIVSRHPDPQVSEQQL
MAGI1_5, Q96QZ7, sequence (Q96QZ7 986-1098): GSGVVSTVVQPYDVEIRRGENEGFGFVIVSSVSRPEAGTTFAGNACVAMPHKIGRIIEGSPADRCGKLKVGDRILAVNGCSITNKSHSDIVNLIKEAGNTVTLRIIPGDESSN
MAGI1_6, Q96QZ7, sequence (Q96QZ7 1146-1238): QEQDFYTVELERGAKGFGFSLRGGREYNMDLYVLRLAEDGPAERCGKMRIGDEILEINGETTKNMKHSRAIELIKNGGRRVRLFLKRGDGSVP
RGS3, P49796-9, sequence (P49796 other isoform, or with tags, fused parts or gaps): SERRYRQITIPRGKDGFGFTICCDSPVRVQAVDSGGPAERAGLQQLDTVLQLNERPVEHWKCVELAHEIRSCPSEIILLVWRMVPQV
MAGI3_6, Q5TCQ9, sequence (Q5TCQ9 1014-1103): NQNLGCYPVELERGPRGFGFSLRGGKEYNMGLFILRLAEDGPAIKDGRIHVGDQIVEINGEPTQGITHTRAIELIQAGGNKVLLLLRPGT

RRVRKLPSTTL [RPS6KA1_-3P, Q15418]
3.54: PTPN4, P29074; [1]
3.63: MPDZ_7, O75970; [1]
below the threshold: PDZD2_3, O15018; [1] | MAGI1_6, Q96QZ7; [1] | PDZRN4_2, Q6ZMN7; [1] | MAGI3_5, Q5TCQ9; [1] | LNX2_4, Q8N448; [1] | INTU, Q9ULD6; [1] | NHERF2_1, Q15599; [1] | MAST3, O60307; [1] | MAGIX, Q9H6Y5; [1] | RGS3, P49796-9; [1] | NHERF4_3, Q86UT5; [1] | TJP3_2, O95049; [1] | IL16_2, Q14005; [1] | MPDZ_11, O75970; [1] | LNX2_1, Q8N448; [1] | TJP3_1, O95049; [1] | MPP5, Q8N3R9; [1] | MAGI3_6, Q5TCQ9; [1] | PARD3B_2, Q8TEW8; [1] | PDLIM3, Q53GG5; [1] | SHANK2, Q9UPX8; [1] | MAGI1_5, Q96QZ7; [1] | SHROOM3, Q8TF72; [1]

YDEPTTTTSVPL [SARS-Cov2-3a, P0DTC3]
4.19: RGS3, P49796-9; [2]
below the threshold: PDZD2_3, O15018; [2] | MAGI1_6, Q96QZ7; [2] | PDZRN4_2, Q6ZMN7; [2] | MAGI3_5, Q5TCQ9; [2] | LNX2_4, Q8N448; [2] | NHERF2_1, Q15599; [2] | MAST3, O60307; [2] | MAGIX, Q9H6Y5; [2] | NHERF4_3, Q86UT5; [2] | TJP3_2, O95049; [2] | IL16_2, Q14005; [2] | MPDZ_11, O75970; [2] | LNX2_1, Q8N448; [2] | TJP3_1, O95049; [2] | MPP5, Q8N3R9; [2] | MAGI3_6, Q5TCQ9; [2] | MPDZ_7, O75970; [2] | PARD3B_2, Q8TEW8; [2] | PTPN4, P29074; [2] | PDLIM3, Q53GG5; [2] | SHANK2, Q9UPX8; [2] | SHROOM3, Q8TF72; [2]
3.86: INTU, Q9ULD6; [2]
3.76: MAGI1_5, Q96QZ7; [2]

DEDQHTQITKV [PTEN_Ac, P60484]
below the threshold: PDZD2_3, O15018; [3] | MAGI1_6, Q96QZ7; [3] | PDZRN4_2, Q6ZMN7; [3] | LNX2_4, Q8N448; [3] | INTU, Q9ULD6; [3] | NHERF2_1, Q15599; [3] | MAGIX, Q9H6Y5; [3] | RGS3, P49796-9; [3] | NHERF4_3, Q86UT5; [3] | TJP3_2, O95049; [3] | IL16_2, Q14005; [3] | LNX2_1, Q8N448; [3] | TJP3_1, O95049; [3] | MPP5, Q8N3R9; [3] | PARD3B_2, Q8TEW8; [3] | PTPN4, P29074; [3] | PDLIM3, Q53GG5; [3] | SHROOM3, Q8TF72; [3]
4.84: MAGI1_5, Q96QZ7; [3]
4.8: MPDZ_7, O75970; [3]
4.08: MAGI3_6, Q5TCQ9; [3]
3.97: MAGI3_5, Q5TCQ9; [3] | SHANK2, Q9UPX8; [3]
4.06: MAST3, O60307; [3]
3.78: MPDZ_11, O75970; [3]
